{
  "source": "patent US20150274781A1",
  "about": "(UNIVERSITAET LEIPZIG, published 2015)",
  "note": "Where no end group is shown, it is not given here. [ ]: non-standard residue; d: D form. d1Nal = N[C@H](Cc1cccc2ccccc12)C(=O)O; Phg = N[C@H](C(=O)O)c1ccccc1; Nva = CCC[C@H](N)C(=O)O",
  "data": [
    {"target": "T1, human ghrelin receptor (human, UniProt Q92847 1-366)", "T1 sequence (Q92847 whole entry)": "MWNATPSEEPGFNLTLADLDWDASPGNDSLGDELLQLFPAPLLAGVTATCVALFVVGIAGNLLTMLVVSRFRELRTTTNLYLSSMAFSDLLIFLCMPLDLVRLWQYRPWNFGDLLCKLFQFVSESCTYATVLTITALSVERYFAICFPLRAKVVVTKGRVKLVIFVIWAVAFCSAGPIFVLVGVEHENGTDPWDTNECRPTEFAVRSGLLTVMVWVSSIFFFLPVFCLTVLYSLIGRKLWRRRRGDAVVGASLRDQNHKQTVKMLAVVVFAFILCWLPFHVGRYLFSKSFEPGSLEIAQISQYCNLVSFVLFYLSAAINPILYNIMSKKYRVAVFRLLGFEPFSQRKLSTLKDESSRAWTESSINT", "assay": "cell-based or functional assay", "units": {"EC50, inverse agonistic activity, inositol trisphosphate turnover assay in COS-7 cells transfected with the ghrelin receptor": "nM"}, "values": [
      {"binder": "KXFXLL (2-naphthyl-D-alanine (D-2-Nal) at 2; D-Trp at 4; C-terminal amide)", "note": "[K-(D-2-Nal)-FwLL-NH2]", "EC50, inverse agonistic activity, inositol trisphosphate turnover assay in COS-7 cells transfected with the ghrelin receptor": 161, "Emax [Δ %], inverse agonistic activity, inositol trisphosphate turnover assay": "66 Δ %"},
      {"binder": "K[dW]F[dW]LL-NH2 (N-terminus assumed; SMILES CC(C)C[C@H](NC(=O)[C@H](CC(C)C)NC(=O)[C@@H](Cc1c[nH]c2ccccc12)NC(=O)[C@H](Cc1ccccc1)NC(=O)[C@@H](Cc1c[nH]c2ccccc12)NC(=O)[C@@H](N)CCCCN)C(N)=O)", "note": "[KwFwLL-NH2]", "EC50, inverse agonistic activity, inositol trisphosphate turnover assay in COS-7 cells transfected with the ghrelin receptor": 45.6, "Emax [Δ %], inverse agonistic activity, inositol trisphosphate turnover assay": "37 Δ %"},
      {"binder": "KXFXLL (4,4'-biphenyl-D-alanine (D-Bip) at 2; D-Trp at 4; C-terminal amide)", "note": "[K-(D-Bip)-FwLL-NH2]", "EC50, inverse agonistic activity, inositol trisphosphate turnover assay in COS-7 cells transfected with the ghrelin receptor": 184, "Emax [Δ %], inverse agonistic activity, inositol trisphosphate turnover assay": "82 Δ %"},
      {"binder": "KXFXLL (beta-(3-benzothienyl)-D-alanine (D-Bth) at 2; D-Trp at 4; C-terminal amide)", "note": "[K-(D-Bth)-FwLL-NH2]", "Emax [Δ %], inverse agonistic activity, inositol trisphosphate turnover assay": "81 Δ %"},
      {"binder": "KXFXLL (1-naphthyl-D-alanine (D-1-Nal) at 2; D-Trp at 4; C-terminal amide)", "note": "[K-(D-1-Nal)-FwLL-NH2]", "EC50, inverse agonistic activity, inositol trisphosphate turnover assay in COS-7 cells transfected with the ghrelin receptor": 3.4, "Emax [Δ %], inverse agonistic activity, inositol trisphosphate turnover assay": "64 Δ %"},
      {"binder": "KXFXLL (tert-butyl-D-phenylalanine (D-tBf) at 2; D-Trp at 4; C-terminal amide)", "note": "[K-(D-tBf)-FwLL-NH2]", "EC50, inverse agonistic activity, inositol trisphosphate turnover assay in COS-7 cells transfected with the ghrelin receptor": 624, "Emax [Δ %], inverse agonistic activity, inositol trisphosphate turnover assay": "76 Δ %"},
      {"binder": "KXFXLL (D-Phe at 2; D-Trp at 4; C-terminal amide)", "note": "[K-(D-Phe)-FwLL-NH2]", "EC50, inverse agonistic activity, inositol trisphosphate turnover assay in COS-7 cells transfected with the ghrelin receptor": 241, "Emax [Δ %], inverse agonistic activity, inositol trisphosphate turnover assay": "62 Δ %"},
      {"binder": "KXFXLL (4-benzoyl-D-phenylalanine (D-Bpa) at 2; D-Trp at 4; C-terminal amide)", "note": "[K-(D-Bpa)-FwLL-NH2]", "EC50, inverse agonistic activity, inositol trisphosphate turnover assay in COS-7 cells transfected with the ghrelin receptor": 169, "Emax [Δ %], inverse agonistic activity, inositol trisphosphate turnover assay": "67 Δ %"},
      {"binder": "KXFXLL (3,3-diphenyl-D-alanine (D-Dip) at 2; D-Trp at 4; C-terminal amide)", "note": "[K-(D-Dip)-FwLL-NH2]", "EC50, inverse agonistic activity, inositol trisphosphate turnover assay in COS-7 cells transfected with the ghrelin receptor": 13.1, "Emax [Δ %], inverse agonistic activity, inositol trisphosphate turnover assay": "87 Δ %"}
    ]},
    {"target": "T1, human ghrelin receptor", "assay": "cell-based or functional assay", "remark": "another data set of the same source", "units": {"EC50, agonistic activity, inositol trisphosphate turnover assay in COS-7 cells transfected with the ghrelin receptor": "nM"}, "values": [
      {"binder": "KXFXLL (D-Trp at 2; 2-naphthyl-D-alanine (D-2-Nal) at 4; C-terminal amide)", "note": "[KwF-(D-2-Nal)-LL-NH2]", "EC50, agonistic activity, inositol trisphosphate turnover assay in COS-7 cells transfected with the ghrelin receptor": 12.6},
      {"binder": "KXFXLL (D-Trp at 2; 1-naphthyl-D-alanine (D-1-Nal) at 4; C-terminal amide)", "note": "[KwF-(D-1-Nal)-LL-NH2]", "EC50, agonistic activity, inositol trisphosphate turnover assay in COS-7 cells transfected with the ghrelin receptor": 17.9}
    ]},
    {"target": "T1, human ghrelin receptor", "assay": "cell-based or functional assay", "remark": "another data set of the same source", "units": {"EC50, inverse agonistic activity, inositol trisphosphate turnover assay in COS-7 cells transfected with the ghrelin receptor": "nM", "x-fold (EC50) compared to K-(D-1-Nal)-FwLL-NH2": "fold", "x-fold (Emax) compared to K-(D-1-Nal)-FwLL-NH2": "fold"}, "values": [
      {"binder": "K[d1Nal][Phg][dW]LL-NH2 (N-terminus assumed; SMILES CC(C)C[C@H](NC(=O)[C@H](CC(C)C)NC(=O)[C@@H](Cc1c[nH]c2ccccc12)NC(=O)[C@@H](NC(=O)[C@@H](Cc1cccc2ccccc12)NC(=O)[C@@H](N)CCCCN)c1ccccc1)C(N)=O)", "note": "[K-(D-1-Nal)-(L-Phg)-wLL-NH2]", "EC50, inverse agonistic activity, inositol trisphosphate turnover assay in COS-7 cells transfected with the ghrelin receptor": "> 1000", "x-fold (EC50) compared to K-(D-1-Nal)-FwLL-NH2": "> 290"},
      {"binder": "K[d1Nal][Nva][dW]LL-NH2 (N-terminus assumed; SMILES CCC[C@H](NC(=O)[C@@H](Cc1cccc2ccccc12)NC(=O)[C@@H](N)CCCCN)C(=O)N[C@H](Cc1c[nH]c2ccccc12)C(=O)N[C@@H](CC(C)C)C(=O)N[C@@H](CC(C)C)C(N)=O)", "note": "[K-(D-1-Nal)-(L-Nva)-wLL-NH2]", "EC50, inverse agonistic activity, inositol trisphosphate turnover assay in COS-7 cells transfected with the ghrelin receptor": 498, "Emax [Δ %], inverse agonistic activity, inositol trisphosphate turnover assay": "71 Δ %", "x-fold (EC50) compared to K-(D-1-Nal)-FwLL-NH2": 146, "x-fold (Emax) compared to K-(D-1-Nal)-FwLL-NH2": 1.1},
      {"binder": "KXXXLL (1-naphthyl-D-alanine (D-1-Nal) at 2; D-Phe at 3; D-Trp at 4; C-terminal amide)", "note": "[K-(D-1-Nal)-(D-Phe)-wLL-NH2]", "EC50, inverse agonistic activity, inositol trisphosphate turnover assay in COS-7 cells transfected with the ghrelin receptor": 120, "Emax [Δ %], inverse agonistic activity, inositol trisphosphate turnover assay": "58 Δ %", "x-fold (EC50) compared to K-(D-1-Nal)-FwLL-NH2": 35.2, "x-fold (Emax) compared to K-(D-1-Nal)-FwLL-NH2": 0.9},
      {"binder": "KXXXLL (1-naphthyl-D-alanine (D-1-Nal) at 2; 3-cyclohexyl-L-alanine (L-Cha) at 3; D-Trp at 4; C-terminal amide)", "note": "[K-(D-1-Nal)-(L-Cha)-wLL-NH2]", "EC50, inverse agonistic activity, inositol trisphosphate turnover assay in COS-7 cells transfected with the ghrelin receptor": 96.8, "Emax [Δ %], inverse agonistic activity, inositol trisphosphate turnover assay": "85 Δ %", "x-fold (EC50) compared to K-(D-1-Nal)-FwLL-NH2": 28.5, "x-fold (Emax) compared to K-(D-1-Nal)-FwLL-NH2": 1.3},
      {"binder": "KXFXLL (1-naphthyl-D-alanine (D-1-Nal) at 2; D-Trp at 4; C-terminal amide)", "note": "[K-(D-1-Nal)-FwLL-NH2]", "EC50, inverse agonistic activity, inositol trisphosphate turnover assay in COS-7 cells transfected with the ghrelin receptor": 3.4, "Emax [Δ %], inverse agonistic activity, inositol trisphosphate turnover assay": "64 Δ %"},
      {"binder": "KXXXLL (1-naphthyl-D-alanine (D-1-Nal) at 2; tert-butyl-L-phenylalanine (L-tBf) at 3; D-Trp at 4; C-terminal amide)", "note": "[K-(D-1-Nal)-(L-tBf)-wLL-NH2]", "EC50, inverse agonistic activity, inositol trisphosphate turnover assay in COS-7 cells transfected with the ghrelin receptor": 124, "Emax [Δ %], inverse agonistic activity, inositol trisphosphate turnover assay": "84 Δ %", "x-fold (EC50) compared to K-(D-1-Nal)-FwLL-NH2": 36.5, "x-fold (Emax) compared to K-(D-1-Nal)-FwLL-NH2": 1.3}
    ]}
  ]
}
